The series concerns the molecule itself. The experiment in a line: split reporter (BiFC, NanoBiT).

B1: WSN FluPol heterotrimer in cells infected with recombinant WSN viruses expressing PB1-Gluc1 and PB1-Gluc2 (complex)
chain 1: MDVNPTLLFLKVPAQNAISTTFPYTGDPPYSHGTGTGYTMDTVNRTHQYSERGRWTTNTETGAPQLNPIDGPLPEDNEPSGYAQTDCVLEAMAFLEESHPGIFETSCLETMEVVQQTRVDKLTQGRQTYDWTLNRNQPAATALANTIEVFRSNGLTANESGRLIDFLKDVMESMNKEEMEITTHFQRKRRVRDNMTKKMVTQRTIGKRKQRLNKRSYLIRALTLNTMTKDAERGKLKRRAIATPGMQIRGFVYFVETLARSICEKLEQSGLPVGGNEKKAKLANVVRKMMTNSQDTEISFTITGDNTKWNENQNPRMFLAMITYITRNQPEWFRNVLSIAPIMFSNKMARLGKGYMFESKSMKIRTQIPAEMLASIDLKYFNDSTRKKIEKIRPLLIDGTASLSPGMMMGMFNMLSTVLGVSILNLGQKRHTKTTYWWDGLQSSDDFALIVNAPNHEGIQAGVNRFYRTCKLLGINMSKKKSYINRTGTFEFTSFFYRYGFVANFSMELPSFGVSGINESADMSIGVTVIKNNMINNDLGPATAQMALQLFIKDYRYTYRCHRGDTQIQTRRSFEIKKLWEQTHSKAGLLVSDGGPNLYNIRNLHIPEVCLKWELMDEDYQGRLCNPLNPFVNHKDIESVNNAVIMPAHGPAKNMEYDAVATTHSWIPKRNRSILNTSQRGILEDEQMYQKCCNLFEKFFPSSSYRRPVGISSMVEAMVSRARIDARIDFESGRIKKEEFTEIMKICSTIEELRRQK
chain 2: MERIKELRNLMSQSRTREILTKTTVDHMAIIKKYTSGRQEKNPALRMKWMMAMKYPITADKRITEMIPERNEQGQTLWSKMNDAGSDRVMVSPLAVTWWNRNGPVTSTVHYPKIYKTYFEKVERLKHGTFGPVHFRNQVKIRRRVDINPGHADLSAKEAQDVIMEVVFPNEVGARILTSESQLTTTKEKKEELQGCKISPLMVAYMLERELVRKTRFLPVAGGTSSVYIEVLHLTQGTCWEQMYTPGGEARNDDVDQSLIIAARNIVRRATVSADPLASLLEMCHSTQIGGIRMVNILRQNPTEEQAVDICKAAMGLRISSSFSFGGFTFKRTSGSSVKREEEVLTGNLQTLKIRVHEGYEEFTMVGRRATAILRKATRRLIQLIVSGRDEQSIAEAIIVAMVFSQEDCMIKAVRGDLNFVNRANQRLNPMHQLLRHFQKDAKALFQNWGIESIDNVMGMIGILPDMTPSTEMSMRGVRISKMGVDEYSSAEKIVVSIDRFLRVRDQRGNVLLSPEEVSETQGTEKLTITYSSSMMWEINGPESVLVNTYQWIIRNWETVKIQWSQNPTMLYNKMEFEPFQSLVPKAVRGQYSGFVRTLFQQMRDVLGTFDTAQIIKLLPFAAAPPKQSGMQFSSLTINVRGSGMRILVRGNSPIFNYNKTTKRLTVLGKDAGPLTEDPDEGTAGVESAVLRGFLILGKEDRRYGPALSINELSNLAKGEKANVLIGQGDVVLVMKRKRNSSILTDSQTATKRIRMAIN
chain 3: […]
notes: copies: + +
Take B1: the “luciferase activity, fold over background” value is above 1000 fold over background.

The values above are taken from article PMC6776259 (PLoS Pathogens, 2019).
